The values below come from IntAct's records for PubMed 16979624.

One assay addresses enah_human ENAH (UniProt Q8N8S7).
The next assay concerns the target home3_human HOMER3 (UniProt Q9NSC5).
UniProt Q9NSC5, sequence (Q9NSC5 whole entry): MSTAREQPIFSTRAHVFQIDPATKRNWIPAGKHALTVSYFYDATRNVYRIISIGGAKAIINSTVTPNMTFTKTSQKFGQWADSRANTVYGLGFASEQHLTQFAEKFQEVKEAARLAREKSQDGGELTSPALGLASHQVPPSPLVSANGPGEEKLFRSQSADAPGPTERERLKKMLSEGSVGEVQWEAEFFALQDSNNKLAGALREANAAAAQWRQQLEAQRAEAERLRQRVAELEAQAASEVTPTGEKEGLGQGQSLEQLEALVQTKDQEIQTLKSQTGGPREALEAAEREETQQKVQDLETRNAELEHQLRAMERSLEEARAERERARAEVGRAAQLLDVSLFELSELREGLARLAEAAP

UniProt Q8N8S7, sequence (Q8N8S7 whole entry): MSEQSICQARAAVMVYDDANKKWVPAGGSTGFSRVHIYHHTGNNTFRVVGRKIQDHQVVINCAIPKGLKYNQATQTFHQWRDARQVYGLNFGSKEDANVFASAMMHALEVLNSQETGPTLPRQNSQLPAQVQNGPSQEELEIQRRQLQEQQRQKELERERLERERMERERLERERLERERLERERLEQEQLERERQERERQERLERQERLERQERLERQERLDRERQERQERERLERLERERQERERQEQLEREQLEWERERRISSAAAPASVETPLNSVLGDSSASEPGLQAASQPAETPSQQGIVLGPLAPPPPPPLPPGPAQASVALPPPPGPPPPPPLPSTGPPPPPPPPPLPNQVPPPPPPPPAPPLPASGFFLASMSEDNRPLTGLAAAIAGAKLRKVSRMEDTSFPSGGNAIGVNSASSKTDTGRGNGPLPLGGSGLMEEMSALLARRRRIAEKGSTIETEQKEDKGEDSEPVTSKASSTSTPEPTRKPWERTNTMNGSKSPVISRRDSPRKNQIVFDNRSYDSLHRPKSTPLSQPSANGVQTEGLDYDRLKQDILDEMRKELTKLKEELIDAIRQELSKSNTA

“Protocadherin Fat 1 (Homo sapiens), Q14517 P4438D”: the “effect of a mutation on the interaction” value with enah_human ENAH and in the assay with home3_human HOMER3 was “disrupting interaction” in each case.
